{
  "source": "patent EP4538294A1",
  "about": "(Shandong Simcere Biopharmaceutical Co., Ltd., dated 2025)",
  "binders": {"B1": {"name": "Tri-41 (trispecific antibody, V domains shown)", "VHH": "EVQLVESGGGLVQPGGSLRLSCSASGFTLDYYMIGWFRQAPGKEREGLSSISPADGSTYYADSVKGRFTISRDSSKNTVYLQMNSLRAEDTAVYYCAAGNEATISWGFGPWEYDYWGQGTMVTVSS", "VH 1": "EVQLVQSGAEVKKPGSSVKVSCKASGYTFTSYGISWVRQAPGQGLEWMGEIYPRSGNTYYNEKFKGRVTLTADKSTSTAYMELSSLRSEDTAVYYCARGRAYGRNYPMDYWGQGTTVTVSS", "VL 1": "EIVLTQSPATLSLSPGERATLSCRASQSIGTSIHWYQQKPGQSPRLLIKYASESISGIPARFSGSGSGTDFTLTISSLEPEDFAVYYCQQSNSWPYTFGGGTKVEIK", "VH 2": "EVQLVESGGGVVQPGRSLRLSCAASGFTFTDYYMSWVRQAPGKGLEWVAMSRNKAKGHTIEYSSSVKGRFTISRDNSKNTLYLQMNSLRAEDTAVYYCARDTYESYDGYFDVWGQGTTVTVSS", "VL 2": "DIVMTQSPDSLAVSLGERATINCKSSQSLFNSRSRKNYLAWYQQKPGQTPKLLIYWASIRESGVPDRFSGSGSGTDFTLTISSLQAEDVAVYYCKQSYYLYTFGQGTKLEIK"}, "B2": {"name": "Tri-32 (trispecific antibody, V domains shown)", "VHH": "B1 VHH", "VH 1": "B1 VH 1", "VL 1": "B1 VL 1", "VH 2": "B1 VH 2", "VL 2": "B1 VL 2"}, "B3": {"name": "Tri-55 (trispecific antibody, V domains shown)", "VHH": "EVQLVESGGGLVQPGGSLRLSCAASESISSIHIMAWYRQAPGKQRELVAGIRNDGSTVYVDSVKGRFTISRDNAKNSLYLQMNSLRAEDTAVYYCNADQGFGSYSEWERRSRWGQGTTVTVSS", "VH 1": "B1 VH 1", "VL 1": "B1 VL 1", "VH 2": "B1 VH 2", "VL 2": "B1 VL 2"}, "B4": {"name": "Tri-49 (trispecific antibody, V domains shown)", "VHH": "B3 VHH", "VH 1": "B1 VH 1", "VL 1": "B1 VL 1", "VH 2": "B1 VH 2", "VL 2": "B1 VL 2"}, "B5": {"name": "REGN5459-anti-BCMA-hIgG1 (antibody, V domains shown)", "VH": "EVQLVESGGGLVQPGGSLRLSCAASGFTFSNFWMTWVRQAPGKGLEWVANMNQDGSEKYYVDSVKGRFTISRDNAKSSLYLQMNSLRAEDTAVYYCARDREYCISTSCYDDFDYWGQGTLVTVSS", "VL": "not shown"}},
  "data": [
    {"biological_target": "T1, human CD3 on Jurkat cells and on activated human PBMC (human, UniProt P07766 23-207; P04234 22-171)", "T1 construct": "whole, on cells; Endogenous CD3 of the T cell receptor complex on cells", "T1 sequence (P07766 23-207, chain 1 of 2)": "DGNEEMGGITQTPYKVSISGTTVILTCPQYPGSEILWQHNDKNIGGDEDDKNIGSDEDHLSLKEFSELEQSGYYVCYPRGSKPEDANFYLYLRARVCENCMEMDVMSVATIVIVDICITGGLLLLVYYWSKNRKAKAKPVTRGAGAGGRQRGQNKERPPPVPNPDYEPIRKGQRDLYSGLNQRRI", "T1 sequence (P04234 22-171, chain 2 of 2)": "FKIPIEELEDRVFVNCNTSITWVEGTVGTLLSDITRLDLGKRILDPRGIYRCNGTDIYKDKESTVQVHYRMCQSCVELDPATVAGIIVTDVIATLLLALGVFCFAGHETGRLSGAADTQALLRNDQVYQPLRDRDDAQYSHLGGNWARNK", "assay": "FACS, Jurkat cells", "units": {"EC50": "nM"}, "values": [
      {"binder": "B1", "Maximum mean fluorescence intensity": 85},
      {"binder": "B2", "EC50": 370, "Maximum mean fluorescence intensity": 3120},
      {"binder": "B3", "EC50": 179, "Maximum mean fluorescence intensity": 4690},
      {"binder": "B4", "EC50": 157, "Maximum mean fluorescence intensity": 795}
    ]},
    {"biological_target": "T1, human CD3 on Jurkat cells and on …", "assay": "FACS, activated human PBMC", "units": {"EC50": "nM"}, "values": [
      {"binder": "B1", "Maximum mean fluorescence intensity": 235},
      {"binder": "B2", "Maximum mean fluorescence intensity": 1780},
      {"binder": "B3", "EC50": 149, "Maximum mean fluorescence intensity": 2260},
      {"binder": "B4", "EC50": 31.8, "Maximum mean fluorescence intensity": 1730}
    ]},
    {"biological_target": "T2, monkey CD3 on activated monkey PBMC (monkey)", "T2 construct": "whole, on cells", "T2 sequence (Q95LI5 22-198)": "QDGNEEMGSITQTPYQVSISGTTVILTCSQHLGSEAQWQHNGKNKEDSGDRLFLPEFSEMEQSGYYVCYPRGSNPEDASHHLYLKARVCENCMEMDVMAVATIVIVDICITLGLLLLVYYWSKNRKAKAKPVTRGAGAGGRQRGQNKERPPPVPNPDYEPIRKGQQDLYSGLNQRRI", "assay": "FACS, activated monkey PBMC", "units": {"EC50": "nM"}, "values": [
      {"binder": "B1", "Maximum mean fluorescence intensity": 417},
      {"binder": "B2", "Maximum mean fluorescence intensity": 1680},
      {"binder": "B3", "EC50": 159, "Maximum mean fluorescence intensity": 2030},
      {"binder": "B4", "EC50": 59.4, "Maximum mean fluorescence intensity": 1380}
    ]},
    {"biological_target": "T3, human BCMA on Flp-inCHO-human BCMA cells (human, UniProt Q02223 1-184)", "T3 construct": "whole, on cells", "T3 sequence (looked up)": "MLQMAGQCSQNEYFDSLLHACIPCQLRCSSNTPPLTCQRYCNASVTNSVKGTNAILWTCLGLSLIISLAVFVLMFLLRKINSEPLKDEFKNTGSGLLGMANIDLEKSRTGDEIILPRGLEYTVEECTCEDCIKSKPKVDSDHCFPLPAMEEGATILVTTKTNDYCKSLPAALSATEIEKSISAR", "assay": "FACS, Flp-inCHO-human BCMA cells", "values": [
      {"binder": "B5", "binding result": "binds"}
    ]},
    {"biological_target": "T4, human GPRC5D on CHOK1-human GPRC5D cells (human, UniProt Q9NZD1 1-345)", "T4 construct": "whole, on cells", "T4 sequence (Q9NZD1 whole entry)": "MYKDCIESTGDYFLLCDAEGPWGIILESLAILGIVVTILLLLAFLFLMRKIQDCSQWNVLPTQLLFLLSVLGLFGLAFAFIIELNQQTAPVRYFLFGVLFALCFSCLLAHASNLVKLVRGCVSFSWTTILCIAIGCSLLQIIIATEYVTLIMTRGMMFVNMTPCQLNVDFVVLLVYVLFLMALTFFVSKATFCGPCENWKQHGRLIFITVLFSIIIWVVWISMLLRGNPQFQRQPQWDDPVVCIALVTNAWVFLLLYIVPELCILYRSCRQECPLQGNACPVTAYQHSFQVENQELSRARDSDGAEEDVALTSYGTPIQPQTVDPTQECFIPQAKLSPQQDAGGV", "assay": "FACS, CHOK1-human GPRC5D cells", "units": {"EC50": "nM"}, "values": [
      {"binder": "B1", "EC50": 4.3},
      {"binder": "B2", "EC50": 3.06},
      {"binder": "B3", "EC50": 6.26},
      {"binder": "B4", "EC50": 2.75}
    ]},
    {"biological_target": "T3, human BCMA on Flp-inCHO-human BCMA cells", "assay": "FACS, Flp-inCHO-human BCMA cells", "remark": "another data set of the same source", "units": {"EC50": "nM"}, "values": [
      {"binder": "B1", "EC50": 1.52},
      {"binder": "B2", "EC50": 2.03},
      {"binder": "B3", "EC50": 0.92},
      {"binder": "B4", "EC50": 1.34}
    ]}
  ]
}
